# Measurements: patent US12076390 (Dana-Farber, dated 2024)
# B1: 3I14 VLD94N IgG1 (antibody, V domains shown)
# VH: QVQLLESGGGVVQPGRSLRLSCAASGFTFSNYGMHWVRQAPGKGLEWVAIISFDGSKKYYANSVKGRSTISRDNSKNTLSLQMNSLGPEDTALYYCAKLPSPYYFDSRFVWVAASAFHFWGQGILVTVSS
# VL: NFMLTQPPSASGTPGQRVTISCSGSSSNIGGNTVHWFQQLPGTAPKLLIYTNSLRPSGVPDRFSGSKSGTSASLAISGLQSEDEADYYCAAWDNSLNGQVFGGGTKLTVL
# Molecular target: HA of A/Vietnam/1203/04 on pseudotyped virus (H5-VN04 pseudovirus) (influenza A virus A/Vietnam/1203/04 …)
# Experiment: cell-based or functional assay
binder,measurement,value
B1,"IC50, neutralization of H5-VN04 pseudovirus",8.65 ng/mL
